For assay [1], the target named is T1, CD137 (human, UniProt Q07011 24-186).
T1 construct: In the reporter assay it is whole, on GS-H2-huCD137 cells; also called 4-1BB; huCD137
In words: CD137 binding (method not given).

Assay [2] concerns the target CD40 (UniProt P25942 21-193, limits assumed). As to the kind of experiment: FCM or ELISA, graded. A general note: An ELISA detects its analyte on a solid surface through an enzyme-linked reagent.
In assay [3] the target is T2, B7H3 (UniProt Q5ZPR3 29-466, limits assumed).
T2 sequence (looked up): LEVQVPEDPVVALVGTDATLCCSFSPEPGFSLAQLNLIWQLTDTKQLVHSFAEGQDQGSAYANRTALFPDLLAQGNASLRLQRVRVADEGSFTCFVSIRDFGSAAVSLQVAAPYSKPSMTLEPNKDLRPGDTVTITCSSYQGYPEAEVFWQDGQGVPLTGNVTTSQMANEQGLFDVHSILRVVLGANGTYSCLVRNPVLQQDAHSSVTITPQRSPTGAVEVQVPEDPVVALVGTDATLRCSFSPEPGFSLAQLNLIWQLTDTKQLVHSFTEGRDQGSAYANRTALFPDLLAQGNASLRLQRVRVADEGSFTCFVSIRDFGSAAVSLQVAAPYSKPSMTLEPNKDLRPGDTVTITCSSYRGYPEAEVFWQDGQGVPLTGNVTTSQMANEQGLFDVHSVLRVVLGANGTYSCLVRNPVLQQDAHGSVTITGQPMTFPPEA
As to the kind of experiment: FCM or ELISA, graded.

The text below walks through data of patent US20250388669A1 (published 2025).

Chain of CD40 (P25942 21-193 limits assumed): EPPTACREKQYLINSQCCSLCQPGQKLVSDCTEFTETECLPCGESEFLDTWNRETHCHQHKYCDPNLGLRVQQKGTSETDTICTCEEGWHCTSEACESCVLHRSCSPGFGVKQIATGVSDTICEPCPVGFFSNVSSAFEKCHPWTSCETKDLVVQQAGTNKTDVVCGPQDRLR

B1: Ly2118 (other)
chain 1: QVQLVQSGAEVKKPGASVKVSCKASGYTFTSYVMHWVRQKPGQGLEWIGYINPYNEGTESTDKFKGRATMTSDKSTSTVYMELSSLRSEDTAVYYCASIYYGYEGTYFGVWGQGTLVTVSSASTKGPSVFPLAPSSKSTSGGTAALGCLVKDYFPEPVTVSWNSGALTSGVHTFPAVLQSSGLYSLSSVVTVPSSSLGTQTYICNVNHKPSNTKVDKKVEPKSCGGGGSGGGGSGGGGSGGGGSQVQLVQSGAEVKKPGASVKVSCKASGYTFAGFEMHWVRQAPGQGLEWMGAIDPKTGGTDYNQKFKDRVTMTRDTSISTAYMELSRLRSDDTAVYYCARDLGYFDVWGQGTLVTVSSGGGGSDKTHTCPPCPAPEAAGPSVFLFPPKPKDTLMISRTPEVTCVVVDVSHEDPEVKFNWYVDGVEVHNAKTKPREEQYNSTYRVVSVLTVLHQDWLNGKEYKCKVSNKALPAPIEKTISKAKGQPREPQVYTLPPSREEMTKNQVSLWCLVKGFYPSDIAVEWESNGQPENNYKTTPPVLDSDGSFFLYSKLTVDKSRWQQGNVFSCSVMHEALHNHYTQKSLSLSPGGGGGSGGGGSGGGGSGGGGSQVTLKESGPALVKPTQTLTLTCTFSGFSLSTSGTCVSWIRQPPGKALEWLATICWEDSKGYNPSLKSRLTISKDTSKNQAVLTMTNMDPVDTATYYCARREDSGYFWFPYWGQGTLVTVSS
chain 2: QVQLVQSGAEVKKPGASVKVSCKASGYTFTSYVMHWVRQKPGQGLEWIGYINPYNEGTESTDKFKGRATMTSDKSTSTVYMELSSLRSEDTAVYYCASIYYGYEGTYFGVWGQGTLVTVSSASTKGPSVFPLAPSSKSTSGGTAALGCLVKDYFPEPVTVSWNSGALTSGVHTFPAVLQSSGLYSLSSVVTVPSSSLGTQTYICNVNHKPSNTKVDKKVEPKSCGGGGSGGGGSGGGGSGGGGSDIQMTQSPSSLSASVGDRVTITCRASQDIRSNLNWYQQKPGGAVKLLIYYTSRLHSGVPSRFSGSGSGTDYTLTISSLQPEDFATYFCQQSEKLPRTFGGGTKVEIRGGGGSDKTHTCPPCPAPEAAGPSVFLFPPKPKDTLMISRTPEVTCVVVDVSHEDPEVKFNWYVDGVEVHNAKTKPREEQYNSTYRVVSVLTVLHQDWLNGKEYKCKVSNKALPAPIEKTISKAKGQPREPQVYTLPPSREEMTKNQVSLSCAVKGFYPSDIAVEWESNGQPENNYKTTPPVLDSDGSFFLVSKLTVDKSRWQQGNVFSCSVMHEALHNRFTQKSLSLSPGGGGGSGGGGSGGGGSGGGGSNIQMTQSPSSLSASVGDRVTITCKAGQNVNNYLAWYQQKPGKAPKVLIFNANSLQTGVPSRFSGSGSGTDFTLTISSLQPEDFATYYCQQYNSWPTFGGGTKVEIK
light: EIVLTQSPATLSLSPGERATLSCRASSSVSYMHWYQQKPGQAPRPWIYATSNLASGIPARFSGSRSGTDYTLTISSLEPEDFAVYYCQQWSSNTLTFGGGTKVEIKRTVAAPSVFIFPPSDEQLKSGTASVVCLLNNFYPREAKVQWKVDNALQSGNSQESVTEQDSKDSTYSLSSTLTLSKADYEKHKVYACEVTHQGLSSPVTKSFNRGEC
notes: Tri-specific antibody: B7H3 Fabs, central CD137 Fv, terminal PD-1 Fv
In assay [1], B1 had a concentration for a half-maximal effect (EC50) of 1.78 µg/mL.

B2: Ly2434 (bispecific antibody, human IgG1, kappa)
heavy 1: QVQLVQSGAEVKKPGASVKVSCKASGYTFTSYVMHWVRQKPGQGLEWIGYINPYNEGTESTDKFKGRATMTSDKSTSTVYMELSSLRSEDTAVYYCASIYYGYEGTYFGVWGQGTLVTVSSASTKGPSVFPLAPSSKSTSGGTAALGCLVKDYFPEPVTVSWNSGALTSGVHTFPAVLQSSGLYSLSSVVTVPSSSLGTQTYICNVNHKPSNTKVDKKVEPKSCDKTHTCPPCPAPEAAGPSVFLFPPKPKDTLMISRTPEVTCVVVDVSHEDPEVKFNWYVDGVEVHNAKTKPREEQYNSTYRVVSVLTVLHQDWLNGKEYKCKVSNKALPAPIEKTISKAKGQPREPQVYTLPPSREEMTKNQVSLWCLVKGFYPSDIAVEWESNGQPENNYKTTPPVLDSDGSFFLYSKLTVDKSRWQQGNVFSCSVMHEALHNHYTQKSLSLSPGGGGGSGGGGSGGGGSGGGGSEVQLVESGGGLVQPGGSLRLSCAASGFTFTNYGLHWVRQAPGKGLEWVSSISPSGGVTYYRDSVKGRFTISRDNSKNTLYLQMNSLRAEDTAVYYCAKPFLGWGGANWIAHWGQGTLVTVSS
heavy 2: QVQLVQSGAEVKKPGASVKVSCKASGYTFTSYVMHWVRQKPGQGLEWIGYINPYNEGTESTDKFKGRATMTSDKSTSTVYMELSSLRSEDTAVYYCASIYYGYEGTYFGVWGQGTLVTVSSASTKGPSVFPLAPSSKSTSGGTAALGCLVKDYFPEPVTVSWNSGALTSGVHTFPAVLQSSGLYSLSSVVTVPSSSLGTQTYICNVNHKPSNTKVDKKVEPKSCDKTHTCPPCPAPEAAGPSVFLFPPKPKDTLMISRTPEVTCVVVDVSHEDPEVKFNWYVDGVEVHNAKTKPREEQYNSTYRVVSVLTVLHQDWLNGKEYKCKVSNKALPAPIEKTISKAKGQPREPQVYTLPPSREEMTKNQVSLSCAVKGFYPSDIAVEWESNGQPENNYKTTPPVLDSDGSFFLVSKLTVDKSRWQQGNVFSCSVMHEALHNRFTQKSLSLSPGGGGGSGGGGSGGGGSGGGGSDIQMTQSPSSLSASVGDRVTITCLASEDISNDLAWYQQKPGKAPKLLIYFVDRLLDGVPSRFSGSGSGTDFTLTISSLQPEDFATYYCQQSYKYPPTFGQGTKLEIK
light: B1 light
notes: B7H3 Fabs x terminal CD40 Fv (TM559)
As to B2, the binding result in assay [2] and in assay [3] was “binds” each time.

B3: Ly1630 (antibody, V domains shown)
VH: QVQLVQSGAEVKKPGASVKVSCKASGYTFAGFEMHWVRQAPGQGLEWMGAIDPKTGGTDYNQKFKDRVTMTRDTSISTAYMELSRLRSDDTAVYYCARDLGYFDVWGQGTLVTVSS
VL: DIQMTQSPSSLSASVGDRVTITCRASQDIRSNLNWYQQKPGGAVKLLIYYTSRLHSGVPSRFSGSGSGTDYTLTISSLQPEDFATYFCQQSEKLPRTFGGGTKVEIR
notes: Parent mAb; also called Anti-CD137 Ly1630; parent anti-CD137 mAb
B3 gave an EC50 in assay [1] of 0.08 µg/mL.

As a reminder, the EC50 is the concentration giving half of the maximal effect.
